# Laboratory results as given in patent publication US20050118674A1, “Engineering of Controlled Deamidation Rates in Peptides, Proteins, and Similar Structures” (priority 2003, published 2005).
# Experiment: First-order nonenzymatic deamidation of pentapeptides in Tris buffer
# Type: physicochemical
# Details: pH 7.4, 37.0° C., 0.15 M Tris HCl; Asn pentapeptides
# In short: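 First-order deamidation rates determined for XxxAsnYyy and XxxGlnYyy pentapeptides in 0.15 M Tris buffer, pH 7.4, 37° C. Not all values were measured directly: several Asn rates were estimated and most Gln rates came from surface fitting.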
row,Substance,First-Order Deamidation Halftimes of GlyXxxAsnYyyGly [days]
1,GlyThrAsnAlaGly (GTNAG; printed: GlyThrAsnAlaGly),24.6
2,GlyThrAsnAmCysGly,34.4
3,GlyThrAsnArgGly (GTNRG; printed: GlyThrAsnArgGly),51.2
4,GlyThrAsnAspGly (GTNDG; printed: GlyThrAsnAspGly),27.9
5,GlyThrAsnCysGly (GTNCG; printed: GlyThrAsnCysGly),55.5
6,GlyThrAsnGluGly (GTNEG; printed: GlyThrAsnGluGly),60.8
7,GlyThrAsnGlyGly (GTNGG; printed: GlyThrAsnGlyGly),1.04
8,GlyThrAsnHisGly (GTNHG; printed: GlyThrAsnHisGly),9.6
9,GlyThrAsnIleGly (GTNIG; printed: GlyThrAsnIleGly),279
10,GlyThrAsnLeuGly (GTNLG; printed: GlyThrAsnLeuGly),110
11,GlyThrAsnLysGly (GTNKG; printed: GlyThrAsnLysGly),57.6
12,GlyThrAsnMetGly (GTNMG; printed: GlyThrAsnMetGly),47.6
13,GlyThrAsnPheGly (GTNFG; printed: GlyThrAsnPheGly),76.4
14,GlyThrAsnProGly (GTNPG; printed: GlyThrAsnProGly),6290
15,GlyThrAsnSerGly (GTNSG; printed: GlyThrAsnSerGly),17.1
16,GlyThrAsnThrGly (GTNTG; printed: GlyThrAsnThrGly),50.0
17,GlyThrAsnTrpGly (GTNWG; printed: GlyThrAsnTrpGly),72.5
18,GlyThrAsnTyrGly (GTNYG; printed: GlyThrAsnTyrGly),80.6
19,GlyThrAsnValGly (GTNVG; printed: GlyThrAsnValGly),237

row,Substance,First-Order Deamidation Halftimes of GlyXxxAsnYyyGly [days]
1,GlyTrpAsnAlaGly (GWNAG; printed: GlyTrpAsnAlaGly),30.7
2,GlyTrpAsnAmCysGly,42.9
3,GlyTrpAsnArgGly (GWNRG; printed: GlyTrpAsnArgGly),73.9
4,GlyTrpAsnAspGly (GWNDG; printed: GlyTrpAsnAspGly),43.6
5,GlyTrpAsnCysGly (GWNCG; printed: GlyTrpAsnCysGly),83.1
6,GlyTrpAsnGluGly (GWNEG; printed: GlyTrpAsnGluGly),75.7
7,GlyTrpAsnGlyGly (GWNGG; printed: GlyTrpAsnGlyGly),1.75
8,GlyTrpAsnHisGly (GWNHG; printed: GlyTrpAsnHisGly),11.3
9,GlyTrpAsnIleGly (GWNIG; printed: GlyTrpAsnIleGly),286
10,GlyTrpAsnLeuGly (GWNLG; printed: GlyTrpAsnLeuGly),133
11,GlyTrpAsnLysGly (GWNKG; printed: GlyTrpAsnLysGly),59.4
12,GlyTrpAsnMetGly (GWNMG; printed: GlyTrpAsnMetGly),64.2
13,GlyTrpAsnPheGly (GWNFG; printed: GlyTrpAsnPheGly),71.1
14,GlyTrpAsnSerGly (GWNSG; printed: GlyTrpAsnSerGly),15.5
15,GlyTrpAsnThrGly (GWNTG; printed: GlyTrpAsnThrGly),38.9
16,GlyTrpAsnTrpGly (GWNWG; printed: GlyTrpAsnTrpGly),135
17,GlyTrpAsnTyrGly (GWNYG; printed: GlyTrpAsnTyrGly),92.6
18,GlyTrpAsnValGly (GWNVG; printed: GlyTrpAsnValGly),226

# Same assay, conditions: pH 7.4, 37.0 ° C., 0.15 M Tris HCl; Gln pentapeptides; 52 values measured, rest derived from surface fitting
row,Substance,First-Order Deamidation Halftimes of GlyXxxGlnYyyGly [days]
1,GlySerGlnAspGly (GSQDG; printed: GlySerGlnAspGly),8200
2,GlySerGlnCysGly (GSQCG; printed: GlySerGlnCysGly),2100
3,GlySerGlnGluGly (GSQEG; printed: GlySerGlnGluGly),8100
4,GlySerGlnGlyGly (GSQGG; printed: GlySerGlnGlyGly),700
5,GlySerGlnHisGly (GSQHG; printed: GlySerGlnHisGly),6500
6,GlySerGlnIleGly (GSQIG; printed: GlySerGlnIleGly),5900
7,GlySerGlnLeuGly (GSQLG; printed: GlySerGlnLeuGly),6100
8,GlySerGlnLysGly (GSQKG; printed: GlySerGlnLysGly),6300
9,GlySerGlnMetGly (GSQMG; printed: GlySerGlnMetGly),5100
10,GlySerGlnPheGly (GSQFG; printed: GlySerGlnPheGly),8300
11,GlySerGlnProGly (GSQPG; printed: GlySerGlnProGly),10000
12,GlySerGlnSerGly (GSQSG; printed: GlySerGlnSerGly),6000
13,GlySerGlnThrGly (GSQTG; printed: GlySerGlnThrGly),5400
14,GlySerGlnTrpGly (GSQWG; printed: GlySerGlnTrpGly),17000
15,GlySerGlnTyrGly (GSQYG; printed: GlySerGlnTyrGly),13000
16,GlySerGlnValGly (GSQVG; printed: GlySerGlnValGly),6800
17,GlyThrGlnAlaGly (GTQAG; printed: GlyThrGlnAlaGly),4300
18,GlyThrGlnArgGly (GTQRG; printed: GlyThrGlnArgGly),5100
19,GlyThrGlnAspGly (GTQDG; printed: GlyThrGlnAspGly),6300
20,GlyThrGlnCysGly (GTQCG; printed: GlyThrGlnCysGly),1000
21,GlyThrGlnGluGly (GTQEG; printed: GlyThrGlnGluGly),5900
22,GlyThrGlnGlyGly (GTQGG; printed: GlyThrGlnGlyGly),670

row,Substance,First-Order Deamidation Halftimes of GlyXxxGlnYyyGly [days]
1,GlyThrGlnHisGly (GTQHG; printed: GlyThrGlnHisGly),4500
2,GlyThrGlnIleGly (GTQIG; printed: GlyThrGlnIleGly),5300
3,GlyThrGlnLeuGly (GTQLG; printed: GlyThrGlnLeuGly),5200
4,GlyThrGlnLysGly (GTQKG; printed: GlyThrGlnLysGly),4800
5,GlyThrGlnMetGly (GTQMG; printed: GlyThrGlnMetGly),3700
6,GlyThrGlnPheGly (GTQFG; printed: GlyThrGlnPheGly),6800
7,GlyThrGlnProGly (GTQPG; printed: GlyThrGlnProGly),7500
8,GlyThrGlnSerGly (GTQSG; printed: GlyThrGlnSerGly),4200
9,GlyThrGlnThrGly (GTQTG; printed: GlyThrGlnThrGly),4000
10,GlyThrGlnTrpGly (GTQWG; printed: GlyThrGlnTrpGly),9700
11,GlyThrGlnTyrGly (GTQYG; printed: GlyThrGlnTyrGly),8400
12,GlyThrGlnValGly (GTQVG; printed: GlyThrGlnValGly),5100
13,GlyTrpGlnAlaGly (GWQAG; printed: GlyTrpGlnAlaGly),7400
14,GlyTrpGlnArgGly (GWQRG; printed: GlyTrpGlnArgGly),8300
15,GlyTrpGlnAspGly (GWQDG; printed: GlyTrpGlnAspGly),8800
16,GlyTrpGlnCysGly (GWQCG; printed: GlyTrpGlnCysGly),2300
17,GlyTrpGlnGluGly (GWQEG; printed: GlyTrpGlnGluGly),8500
18,GlyTrpGlnGlyGly (GWQGG; printed: GlyTrpGlnGlyGly),850
19,GlyTrpGlnHisGly (GWQHG; printed: GlyTrpGlnHisGly),7500
20,GlyTrpGlnIleGly (GWQIG; printed: GlyTrpGlnIleGly),8000
21,GlyTrpGlnLeuGly (GWQLG; printed: GlyTrpGlnLeuGly),7900
